Laboratory results as given in PMC7105229.
Like-named read-outs stand apart in the source and are kept apart here.

Tests used:
[1] = target: Vibrio vulnificus FAN1 (Vibrio vulnificus); assay: SEC
[2] = target: Vibrio vulnificus FAN1 (Vibrio vulnificus); assay: SEC; remark: listed apart in the source

Vibrio vulnificus FAN1 (enzyme)
stoichiometry N [1]: 2 | stoichiometry N [2]: 2
